Literature values as cited in article PMC8100458.

How the values were obtained:
[1] = target: Asef (Homo sapiens) (UniProt Q9NR80); test: ITC
[2] = target: Asef peptide 179-193 (Homo sapiens); test: FP competition
[3] = target: Asef peptide 181-192 (Homo sapiens); test: FP competition
[4] = target: Asef peptide 183-190 (Homo sapiens); test: FP competition
[5] = target: Asef peptide 187-192 (Homo sapiens); test: FP competition

Sequence of UniProt Q9NR80 (Q9NR80 whole entry): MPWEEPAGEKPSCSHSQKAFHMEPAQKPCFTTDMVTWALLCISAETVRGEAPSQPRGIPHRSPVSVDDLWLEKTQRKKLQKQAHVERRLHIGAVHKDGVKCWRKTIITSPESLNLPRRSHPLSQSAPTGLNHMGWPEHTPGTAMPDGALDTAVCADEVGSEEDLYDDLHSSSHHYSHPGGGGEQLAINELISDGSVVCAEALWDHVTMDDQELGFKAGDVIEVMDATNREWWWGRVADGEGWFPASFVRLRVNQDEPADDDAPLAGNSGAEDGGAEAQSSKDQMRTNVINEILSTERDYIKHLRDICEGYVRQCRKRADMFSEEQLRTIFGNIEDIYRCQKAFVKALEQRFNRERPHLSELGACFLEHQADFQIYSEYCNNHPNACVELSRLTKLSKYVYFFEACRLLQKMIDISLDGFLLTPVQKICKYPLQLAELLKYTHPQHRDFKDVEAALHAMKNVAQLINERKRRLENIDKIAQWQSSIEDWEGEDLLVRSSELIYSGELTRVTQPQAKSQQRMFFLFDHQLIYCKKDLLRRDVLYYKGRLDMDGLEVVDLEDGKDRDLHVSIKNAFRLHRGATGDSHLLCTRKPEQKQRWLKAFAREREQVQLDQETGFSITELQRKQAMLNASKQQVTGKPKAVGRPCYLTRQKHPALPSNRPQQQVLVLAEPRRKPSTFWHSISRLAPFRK

Kd [1]: 0.0178 µM
Ki [2]: 17.1 µM
Ki [3]: 49.1 µM
Ki [4]: > 300 µM
Ki [5]: > 300 µM
Substance: APC (from UniProt P25054)
